Patent US20110318347A1

Experiments:
human CXCR4 (human) [1] = assay: competition vs [125I]-238D4 (3 nM), membranes of HEK293T cells expressing CXCR4; Table B-3 competition vs [125I]-238D4, at 0.5 µM: no displacement
human CXCR4 (human) [2] = assay: competition vs [125I]-238D2 (3 nM), membranes of HEK293T cells expressing CXCR4; Table B-3 competition vs [125I]-238D2, up to 0.5 µM; bound only
human CXCR4 (human) [3] = assay: competition vs [125I]-238D2 (3 nM), membranes of HEK293T cells expressing CXCR4; Table B-3 competition vs [125I]-238D2, at 0.5 µM: no displacement
human CXCR4 (human) [4] = assay: competition vs [125I]-238D4 (3 nM), membranes of HEK293T cells expressing CXCR4; Table B-3 competition vs [125I]-238D4, up to 0.5 µM; bound only
human CXCR4 (human) [5] = assay: periplasmic fraction (1:10), displacement of [125I]-CXCL12, HEK293T-CXCR4 membranes; - = 0-29%, + = 30-69%, ++ = 70-100%; screening of clones (Table B-2): 30-69% displacement of [125I]-CXCL12, HEK293T-CXCR4 membranes
human CXCR4 (human) [6] = assay: competition vs [125I]-CXCL12 (40 pM), membranes of HEK293T cells expressing CXCR4; Table B-3 competition vs [125I]-CXCL12, up to 0.5 µM; bound only
human CXCR4 (human) [7] = assay: competition vs [125I]-CXCL12; potency relative to monovalent 238D4
human CXCR4 (human) [8] = assay: competition with [125I]-CXCL12 on HEK293T-CXCR4 membranes
human CXCR4 (human) [9] = assay: competition vs [125I]-CXCL12, membranes of HEK293T cells expressing CXCR4
human CXCR4 (human) [10] = assay: competition vs [125I]-CXCL12; potency relative to monovalent 238D2
human CXCR4 (human) [11] = biological target: human CXCR4 (human)
human CXCR4 (human) [12] = assay: cell-based or functional assay
CCR5 = CCR5 (UniProt P51681); assay: cell-based or functional assay
Sequence of CCR5 (P51681 whole entry): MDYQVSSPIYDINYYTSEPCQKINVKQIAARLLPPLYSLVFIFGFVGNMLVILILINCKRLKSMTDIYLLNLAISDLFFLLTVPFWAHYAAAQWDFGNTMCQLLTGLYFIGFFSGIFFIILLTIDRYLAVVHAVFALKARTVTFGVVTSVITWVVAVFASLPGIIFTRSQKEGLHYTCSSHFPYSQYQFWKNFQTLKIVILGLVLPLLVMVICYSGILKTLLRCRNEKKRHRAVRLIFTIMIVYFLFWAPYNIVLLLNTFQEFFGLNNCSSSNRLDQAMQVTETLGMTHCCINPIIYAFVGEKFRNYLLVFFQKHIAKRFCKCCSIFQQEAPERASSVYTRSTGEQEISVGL

B1: Nanobody 237A6 (VHH)
VHH: EVQLVESGGGLVQAGGSLRLSCAASGSIFSLNAMGWYRQAPGKQRELVAGITSSTSTYYADSVKGRFTISRDNTKNTVYLQMNSLKPEDTAVYYCNVDCPDYYSDYECPLEDRGQGTQVTVSS
Displacem. (%) (human CXCR4 (human) [1]): 0% | pKi (human CXCR4 (human) [2]): < 6.3 | Displacem. (%) (human CXCR4 (human) [3]): 0% | pKi (human CXCR4 (human) [4]): < 6.3 | percent inhibition of specific [125I]-CXCL12 binding (human CXCR4 (human) [5]): 30 to 69% | pKi (human CXCR4 (human) [6]): < 6.3

B2: 238D4-20GS-238D4 (VHH)
chain: EVQLMESGGGLVQAGGSLRLSCAASGRTFNNYAMGWFRRAPGKEREFVAAITRSGVRSGVSAIYGDSVKDRFTISRDNAKNTLYLQMNSLKPEDTAVYTCAASAIGSGALRRFEYDYSGQGTQVTVSSGGGGSGGGGSGGGGSGGGGSEVQLMESGGGLVQAGGSLRLSCAASGRTFNNYAMGWFRRAPGKEREFVAAITRSGVRSGVSAIYGDSVKDRFTISRDNAKNTLYLQMNSLKPEDTAVYTCAASAIGSGALRRFEYDYSGQGTQVTVSS
Rel. potency (human CXCR4 (human) [7]): 4.4 fold | IC50 (read off the curve) (human CXCR4 (human) [8]): 2 nM | Displacem. (%) (human CXCR4 (human) [9]): 96% | pKi (human CXCR4 (human) [9]): 8.85

B3: 238D2-20GS-238C5 (VHH)
chain: EVQLVESGGGLVQTGGSLRLSCAASGFTFSSYAMSWVRQAPGKGLEWVSGIKSSGDSTRYAGSVKGRFTISRDNAKNMLYLQMYSLKPEDTAVYYCAKSRVSRTGLYTYDNRGQGTQVTVSSGGGGSGGGGSGGGGSGGGGSEVQLMESGGGLVQAGGSLRLACAASGFTFEDYAIGWFRKAPGKEREGVSCISGSDGSTTYADSVKGRFTISTDNAKNTVYLEMNSLKPEDTAVYYCAQQYGVGGRVVCPGPYEYDVWGQGTQVTVSS
Rel. potency (human CXCR4 (human) [10]): 0.18 fold | Displacem. (%) (human CXCR4 (human) [9]): 110% | pKi (human CXCR4 (human) [9]): 7.35

B4: Nanobody 237D1 (VHH)
VHH: EVQLVESGGGLAQPGGPLRLTCEASGVIYSVNDMGWYRQAPGKQRELVAVITSGGGTNYVDSVKGRFTISGDNRKKTVYLQMNSLKPEDTAVYYCSIYYSSGISTLRSWGQGTQVTVSS
Displacem. (%) (human CXCR4 (human) [1]): 0% | pKi (human CXCR4 (human) [2]): < 6.3 | Displacem. (%) (human CXCR4 (human) [3]): 0% | pKi (human CXCR4 (human) [4]): < 6.3 | percent inhibition of specific [125I]-CXCL12 binding (human CXCR4 (human) [5]): 30 to 69% | pKi (human CXCR4 (human) [6]): < 6.3

B5: 238D2-15GS-238D4 (VHH)
chain: EVQLVESGGGLVQTGGSLRLSCAASGFTFSSYAMSWVRQAPGKGLEWVSGIKSSGDSTRYAGSVKGRFTISRDNAKNMLYLQMYSLKPEDTAVYYCAKSRVSRTGLYTYDNRGQGTQVTVSSGGGGSGGGGSGGGGSEVQLMESGGGLVQAGGSLRLSCAASGRTFNNYAMGWFRRAPGKEREFVAAITRSGVRSGVSAIYGDSVKDRFTISRDNAKNTLYLQMNSLKPEDTAVYTCAASAIGSGALRRFEYDYSGQGTQVTVSS
Rel. potency (human CXCR4 (human) [10]): 28 fold | Rel. potency (human CXCR4 (human) [7]): 17 fold | IC50 (read off the curve), migration of Jurkat cells towards 0.3 nM CXCL12 (human CXCR4 (human) [11]): 0.3 nM | IC50 (read off the curve) (human CXCR4 (human) [8]): 0.5 nM | Displacem. (%) (human CXCR4 (human) [9]): 92% | pKi (human CXCR4 (human) [9]): 9.45 | Anti-HIV-1 activity (in nM), MT-4/HE (human CXCR4 (human) [12]): 0.16 nM | Anti-HIV-1 activity (in nM), MT-4/NL4.3 (human CXCR4 (human) [12]): 0.25 nM | Anti-HIV-1 activity (in nM), PBMC/HE (human CXCR4 (human) [12]): 1.5 nM | Anti-HIV-1 activity (in nM), PBMC/NL4.3 (human CXCR4 (human) [12]): 0.5 nM | Anti-HIV-1 activity (in nM), U87.CD4.CXCR4/NL4.3 (human CXCR4 (human) [12]): 0.36 nM | Chemotaxis, Jurkat/0.3 nM CXCL12, Imax (%) (human CXCR4 (human) [12]): 107% | Chemotaxis, Jurkat/0.3 nM CXCL12, pKi or pIC50 (human CXCR4 (human) [12]): 9.86 | IC50, HIV-1 NL4.3, MT-4 cells, exp. 1 (human CXCR4 (human) [12]): 0.0166 µg/mL | IC50, HIV-1 NL4.3, PBMC donor 1 (human CXCR4 (human) [12]): 0.01 µg/mL | IC50, HIV-1 NL4.3, PBMC donor 2 (human CXCR4 (human) [12]): 0.0179 µg/mL | IC50, HIV-1 UG270, PBMC donor 1 (human CXCR4 (human) [12]): 0.0212 µg/mL | IC50, HIV-1 UG270, PBMC donor 2 (human CXCR4 (human) [12]): 0.0894 µg/mL | IC90, HIV-1 NL4.3, MT-4 cells, exp. 1 (human CXCR4 (human) [12]): 0.0711 µg/mL | IC90, HIV-1 NL4.3, PBMC donor 1 (human CXCR4 (human) [12]): 0.11 µg/mL | IC90, HIV-1 NL4.3, PBMC donor 2 (human CXCR4 (human) [12]): 0.0341 µg/mL | IC90, HIV-1 UG270, PBMC donor 1 (human CXCR4 (human) [12]): 0.0789 µg/mL | IC90, HIV-1 UG270, PBMC donor 2 (human CXCR4 (human) [12]): 0.17 µg/mL | nM IC50, HIV-1 NL4.3, PBMC donor 1 (human CXCR4 (human) [12]): 0.33 nM | nM IC50, HIV-1 NL4.3, PBMC donor 2 (human CXCR4 (human) [12]): 0.6 nM | nM IC50, HIV-1 UG270, PBMC donor 1 (human CXCR4 (human) [12]): 0.71 nM | nM IC50, HIV-1 UG270, PBMC donor 2 (human CXCR4 (human) [12]): 2.98 nM | Anti-HIV-1 activity (in nM), PBMC/BaL (CCR5): > 100 nM | Anti-HIV-1 activity (in nM), U87.CD4.CCR5/BaL (CCR5): > 100 nM | IC50, HIV-1 BaL, PBMC donor 1 (CCR5): > 1 µg/mL | IC50, HIV-1 BaL, PBMC donor 2 (CCR5): > 1 µg/mL | IC90, HIV-1 BaL, PBMC donor 1 (CCR5): > 1 µg/mL | IC90, HIV-1 BaL, PBMC donor 2 (CCR5): > 1 µg/mL | nM IC50, HIV-1 BAL, PBMC donor 1 (CCR5): > 67 nM | nM IC50, HIV-1 BAL, PBMC donor 2 (CCR5): > 67 nM
